The results in this text go back to publication PMC8699518 (Biomolecules, 2021).

The term Kd denotes a measure of binding affinity in units of concentration.

Experiment [1] addresses T1, recombinant glycosylated IFN-β (Pharmapark, Moscow, Russia) (Homo sapiens, UniProt P01574, glycosylated).
T1 construct: human interferon beta, glycosylated form (IFN-β-1a); also called IFN-β-1a; IFNβ-1a; source: bought: Pharmapark
Kind of experiment: ELISA; Kd by the method of Friguet with the Klotz equation; murine antibody and IFN-β in solution at equilibrium, free antibody measured by ELISA.

For another experiment, the target named is T2, E. coli-HuIFN-γ (Homo sapiens, UniProt P01579).
T2 construct: human interferon gamma expressed in E. coli; source: expressed in E. coli
T2 sequence (P01579 24-161): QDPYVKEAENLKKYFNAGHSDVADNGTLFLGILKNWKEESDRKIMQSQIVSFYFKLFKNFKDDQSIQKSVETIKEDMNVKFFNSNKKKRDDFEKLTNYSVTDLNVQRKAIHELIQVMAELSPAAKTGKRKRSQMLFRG
The experiment is described as follows: ELISA; indirect ELISA of the hybridoma panel; antigens adsorbed overnight at 4 °C in PBS pH 7.2 at 2 μg/mL, 50 μL/well; anti-mouse immunoglobulin-HRP, OD450.

T1 sequence (P01574 22-187): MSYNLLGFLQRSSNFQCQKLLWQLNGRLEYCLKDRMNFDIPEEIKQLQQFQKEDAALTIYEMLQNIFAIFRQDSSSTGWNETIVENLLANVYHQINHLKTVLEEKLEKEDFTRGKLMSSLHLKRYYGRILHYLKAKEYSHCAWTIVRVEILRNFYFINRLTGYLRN

B1: murine monoclonal antibody B16 against IFN-β (antibody, V domains shown)
VH: EVKLVESGGGLVQPGGSLKLSCAASGFTFTSYTMSWVRQTPEKRLEWVAYISNGGGSTYYPDTVKGRFTISRDNAKNTLYLQMSSLKSEDTAMYYCARLDWVFAYWGQGTLVTVSA
VL: DIVMTQSHKFMSTSVGDRVSITCKASQDVGTAVAWYQQKPGQSPKLLIYWASTRHTGVPDRFTGSGSGTDFTLTISNVQSEDLADYFCLQYSSFPYTFGGGTKLEIK
notes: VH of murine B16; mouse IgG heavy-chain constant region; VL of murine B16; mouse kappa light-chain constant domain (all L-chains of the panel were of the kappa isotype); Member of the hybridoma panel B1-B21; also called murB16; prototype mouse antibody; source: hybridoma B16
As to B1, the dissociation constant (Kd) in experiment [1] amounted to 3.8 nM. For the same molecule, the binding result with E. coli-HuIFN-γ was “no binding”.
